According to IntAct's records for PubMed 27995898:

B1: S-adenosylhomocysteine hydrolase-like protein 1 (Homo sapiens), O43865 (parent)
chain: MSMPDAMPLPGVGEELKQAKEIEDAEKYSFMATVTKAPKKQIQFADDMQEFTKFPTKTGRRSLSRSISQSSTDSYSSAASYTDSSDDEVSPREKQQTNSKGSSNFCVKNIKQAEFGRREIEIAEQDMSALISLRKRAQGEKPLAGAKIVGCTHITAQTAVLIETLCALGAQCRWSACNIYSTQNEVAAALAEAGVAVFAWKGESEDDFWWCIDRCVNMDGWQANMILDDGGDLTHWVYKKYPNVFKKIRGIVEESVTGVHRLYQLSKAGKLCVPAMNVNDSVTKQKFDNLYCCRESILDGLKRTTDVMFGGKQVVVCGYGEVGKGCCAALKALGAIVYITEIDPICALQACMDGFRVVKLNEVIRQVDVVITCTGNKNVVTREHLDRMKNSCIVCNMGHSNTEIDVTSLRTPELTWERVRSQVDHVIWPDGKRVVLLAEGRLLNLSCSTVPTFVLSITATTQALALIELYNAPEGRYKQDVYLLPKKMDEYVASLHLPSFDAHLTELTDDQAKYLGLNKNGPFKPNYYRY
partner: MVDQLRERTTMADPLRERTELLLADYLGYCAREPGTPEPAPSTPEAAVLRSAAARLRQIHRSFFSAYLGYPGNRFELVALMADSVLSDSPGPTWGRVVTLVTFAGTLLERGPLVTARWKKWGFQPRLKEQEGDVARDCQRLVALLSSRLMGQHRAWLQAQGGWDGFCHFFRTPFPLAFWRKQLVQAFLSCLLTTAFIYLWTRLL

Variants of: B1
Details: with BCL2L10, Q9HD36

effect of a mutation on the interaction | Variant
with no effect | S68A
